According to patent publication US20240425885:

Legend:
Experiment in all cases: cleavage_in_vitro
[1] = tested on: T1, OMNI-128 (metagenomic, unknown); details: TXTL; PAM NRYHCCNN
T1 sequence: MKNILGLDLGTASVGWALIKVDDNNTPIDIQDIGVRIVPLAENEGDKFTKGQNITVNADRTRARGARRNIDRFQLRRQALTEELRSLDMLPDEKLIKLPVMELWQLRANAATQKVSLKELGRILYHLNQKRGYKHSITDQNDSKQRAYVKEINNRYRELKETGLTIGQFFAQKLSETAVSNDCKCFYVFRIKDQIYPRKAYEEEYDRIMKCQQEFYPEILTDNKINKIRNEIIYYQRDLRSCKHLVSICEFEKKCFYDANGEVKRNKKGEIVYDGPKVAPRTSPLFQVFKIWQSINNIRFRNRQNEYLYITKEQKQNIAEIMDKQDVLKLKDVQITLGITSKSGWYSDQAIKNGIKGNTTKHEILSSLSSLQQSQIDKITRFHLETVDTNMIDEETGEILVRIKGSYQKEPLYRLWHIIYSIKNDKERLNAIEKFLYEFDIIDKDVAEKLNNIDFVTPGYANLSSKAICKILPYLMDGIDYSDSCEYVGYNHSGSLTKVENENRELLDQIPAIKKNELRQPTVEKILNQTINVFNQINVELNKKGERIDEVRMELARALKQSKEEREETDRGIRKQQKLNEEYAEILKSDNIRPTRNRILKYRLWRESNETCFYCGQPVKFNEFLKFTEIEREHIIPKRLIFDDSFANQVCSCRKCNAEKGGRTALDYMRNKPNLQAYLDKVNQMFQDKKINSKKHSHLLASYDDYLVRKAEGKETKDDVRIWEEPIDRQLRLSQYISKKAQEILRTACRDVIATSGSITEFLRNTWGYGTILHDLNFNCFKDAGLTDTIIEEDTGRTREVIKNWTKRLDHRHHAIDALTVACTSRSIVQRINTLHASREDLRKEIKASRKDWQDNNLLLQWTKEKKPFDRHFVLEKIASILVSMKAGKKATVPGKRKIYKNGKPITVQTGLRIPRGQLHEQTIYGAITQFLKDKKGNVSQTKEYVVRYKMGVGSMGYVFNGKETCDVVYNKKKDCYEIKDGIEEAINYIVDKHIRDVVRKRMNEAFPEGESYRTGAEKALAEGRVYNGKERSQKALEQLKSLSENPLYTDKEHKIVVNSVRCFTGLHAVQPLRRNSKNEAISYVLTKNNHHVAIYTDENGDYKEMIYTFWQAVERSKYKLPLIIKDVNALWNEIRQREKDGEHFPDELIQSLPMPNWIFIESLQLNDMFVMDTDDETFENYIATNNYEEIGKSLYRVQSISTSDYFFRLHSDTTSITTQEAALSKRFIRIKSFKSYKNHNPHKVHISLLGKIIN

[2] = tested on: T2, OMNI-131 (metagenomic, unknown); details: TXTL; PAM NRWRCCNN
T2 sequence: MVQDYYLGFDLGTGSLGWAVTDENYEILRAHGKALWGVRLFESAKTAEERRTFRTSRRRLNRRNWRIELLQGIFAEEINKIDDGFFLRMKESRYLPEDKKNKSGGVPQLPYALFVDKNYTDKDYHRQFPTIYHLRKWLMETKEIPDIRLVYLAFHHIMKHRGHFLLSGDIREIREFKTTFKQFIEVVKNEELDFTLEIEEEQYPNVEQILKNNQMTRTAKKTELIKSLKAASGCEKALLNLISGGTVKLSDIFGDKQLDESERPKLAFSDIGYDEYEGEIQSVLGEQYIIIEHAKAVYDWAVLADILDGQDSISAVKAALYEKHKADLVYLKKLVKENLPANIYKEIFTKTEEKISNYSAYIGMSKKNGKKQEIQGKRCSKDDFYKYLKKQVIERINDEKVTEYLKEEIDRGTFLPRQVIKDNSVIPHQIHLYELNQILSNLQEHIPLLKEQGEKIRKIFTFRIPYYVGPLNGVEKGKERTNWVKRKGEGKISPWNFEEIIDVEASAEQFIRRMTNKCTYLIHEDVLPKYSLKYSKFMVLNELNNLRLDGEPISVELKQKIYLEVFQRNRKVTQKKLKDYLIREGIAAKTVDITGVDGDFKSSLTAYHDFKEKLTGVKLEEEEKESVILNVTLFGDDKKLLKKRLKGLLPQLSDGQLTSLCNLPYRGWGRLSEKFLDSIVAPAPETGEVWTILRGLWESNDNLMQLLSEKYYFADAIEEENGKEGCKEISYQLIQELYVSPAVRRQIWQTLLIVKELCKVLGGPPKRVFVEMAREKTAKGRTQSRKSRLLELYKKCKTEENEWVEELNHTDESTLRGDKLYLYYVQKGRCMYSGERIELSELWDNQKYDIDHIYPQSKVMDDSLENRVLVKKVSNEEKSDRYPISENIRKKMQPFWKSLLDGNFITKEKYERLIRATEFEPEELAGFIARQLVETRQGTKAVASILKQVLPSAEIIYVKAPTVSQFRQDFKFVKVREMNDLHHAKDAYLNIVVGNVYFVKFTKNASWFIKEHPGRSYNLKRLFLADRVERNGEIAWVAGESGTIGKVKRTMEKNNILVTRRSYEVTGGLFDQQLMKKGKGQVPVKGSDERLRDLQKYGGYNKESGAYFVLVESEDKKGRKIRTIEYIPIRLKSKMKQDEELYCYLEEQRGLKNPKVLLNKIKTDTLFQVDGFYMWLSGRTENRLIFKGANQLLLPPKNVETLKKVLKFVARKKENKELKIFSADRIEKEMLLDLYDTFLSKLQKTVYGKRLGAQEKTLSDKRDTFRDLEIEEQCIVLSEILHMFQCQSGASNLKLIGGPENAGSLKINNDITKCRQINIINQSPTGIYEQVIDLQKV

[3] = tested on: T3, OMNI-133 (metagenomic, unknown); details: TXTL; PAM NNTAMCNN
T3 sequence: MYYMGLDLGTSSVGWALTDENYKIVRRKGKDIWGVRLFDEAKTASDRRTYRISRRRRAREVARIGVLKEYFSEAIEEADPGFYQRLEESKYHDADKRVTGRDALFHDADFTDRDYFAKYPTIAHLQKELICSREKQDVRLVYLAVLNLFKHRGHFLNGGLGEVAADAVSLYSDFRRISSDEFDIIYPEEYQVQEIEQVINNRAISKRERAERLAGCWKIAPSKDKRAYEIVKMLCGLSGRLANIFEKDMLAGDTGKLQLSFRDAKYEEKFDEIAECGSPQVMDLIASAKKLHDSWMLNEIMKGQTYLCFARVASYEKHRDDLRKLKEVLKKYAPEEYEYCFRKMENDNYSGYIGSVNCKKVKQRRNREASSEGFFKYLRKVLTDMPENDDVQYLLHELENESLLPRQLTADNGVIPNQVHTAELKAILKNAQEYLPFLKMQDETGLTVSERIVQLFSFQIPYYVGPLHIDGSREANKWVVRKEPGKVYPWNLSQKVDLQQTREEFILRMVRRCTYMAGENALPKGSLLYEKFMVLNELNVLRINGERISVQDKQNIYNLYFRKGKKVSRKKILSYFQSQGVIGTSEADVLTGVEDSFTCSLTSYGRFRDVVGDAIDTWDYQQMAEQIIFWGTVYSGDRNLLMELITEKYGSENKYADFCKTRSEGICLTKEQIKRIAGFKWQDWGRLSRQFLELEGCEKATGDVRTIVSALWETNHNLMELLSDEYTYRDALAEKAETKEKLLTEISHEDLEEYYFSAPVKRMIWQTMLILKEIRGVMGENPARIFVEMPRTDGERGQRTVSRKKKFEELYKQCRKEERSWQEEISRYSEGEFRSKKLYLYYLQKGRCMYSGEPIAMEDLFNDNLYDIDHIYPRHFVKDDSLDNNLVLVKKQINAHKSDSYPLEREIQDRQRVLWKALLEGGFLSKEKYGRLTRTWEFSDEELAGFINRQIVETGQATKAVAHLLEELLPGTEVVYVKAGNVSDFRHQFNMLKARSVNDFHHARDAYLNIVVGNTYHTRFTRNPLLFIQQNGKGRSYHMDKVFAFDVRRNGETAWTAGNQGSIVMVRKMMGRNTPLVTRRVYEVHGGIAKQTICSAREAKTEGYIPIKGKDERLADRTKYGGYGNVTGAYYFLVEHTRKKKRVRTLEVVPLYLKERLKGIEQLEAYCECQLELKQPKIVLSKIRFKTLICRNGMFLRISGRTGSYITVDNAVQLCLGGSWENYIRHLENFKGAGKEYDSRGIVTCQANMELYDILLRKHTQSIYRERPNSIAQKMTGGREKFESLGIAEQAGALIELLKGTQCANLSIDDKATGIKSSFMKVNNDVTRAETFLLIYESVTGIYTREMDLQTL

[4] = tested on: T4, OMNI-129 (metagenomic, unknown); details: TXTL; PAM NNNNGAAA
T4 sequence: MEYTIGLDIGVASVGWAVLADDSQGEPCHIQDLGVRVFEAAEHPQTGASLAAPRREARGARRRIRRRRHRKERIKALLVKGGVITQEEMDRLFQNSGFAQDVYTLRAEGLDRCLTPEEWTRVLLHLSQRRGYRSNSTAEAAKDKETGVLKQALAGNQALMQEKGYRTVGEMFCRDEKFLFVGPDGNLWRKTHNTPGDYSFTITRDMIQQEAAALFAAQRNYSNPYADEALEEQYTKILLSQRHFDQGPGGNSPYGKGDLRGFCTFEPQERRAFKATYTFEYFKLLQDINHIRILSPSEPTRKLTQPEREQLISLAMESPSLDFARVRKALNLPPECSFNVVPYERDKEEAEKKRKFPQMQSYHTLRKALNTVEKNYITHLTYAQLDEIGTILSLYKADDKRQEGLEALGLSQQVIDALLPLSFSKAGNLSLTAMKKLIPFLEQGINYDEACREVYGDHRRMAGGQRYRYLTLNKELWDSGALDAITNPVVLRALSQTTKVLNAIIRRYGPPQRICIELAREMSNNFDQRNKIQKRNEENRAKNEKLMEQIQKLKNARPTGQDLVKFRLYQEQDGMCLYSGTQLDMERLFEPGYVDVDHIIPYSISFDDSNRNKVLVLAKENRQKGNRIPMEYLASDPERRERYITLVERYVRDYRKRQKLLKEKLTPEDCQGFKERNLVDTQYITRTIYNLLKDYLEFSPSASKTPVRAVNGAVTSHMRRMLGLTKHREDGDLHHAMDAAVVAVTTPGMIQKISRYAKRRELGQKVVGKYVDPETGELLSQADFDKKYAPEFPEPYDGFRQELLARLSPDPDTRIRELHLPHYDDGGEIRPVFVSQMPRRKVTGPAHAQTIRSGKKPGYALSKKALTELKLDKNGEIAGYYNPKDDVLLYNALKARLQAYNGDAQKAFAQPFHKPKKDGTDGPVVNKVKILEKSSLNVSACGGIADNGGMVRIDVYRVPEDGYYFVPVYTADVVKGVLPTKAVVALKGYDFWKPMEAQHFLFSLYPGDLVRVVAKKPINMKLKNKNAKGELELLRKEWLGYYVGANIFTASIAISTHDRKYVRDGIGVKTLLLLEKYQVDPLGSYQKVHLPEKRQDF

## GGAAGAGCAGAGCCUUGGUCUCGUUGUGAUUUGCUGAAGAAAUUCAGCAAAUCACAAUAAGGAUUAUUCCGUUGUGAAAACAUUCAAGGCGGCGCAAGUCGCCUUUUUU / GGAAGAGCAGAGCCTTGGTCTCNNNNNNNN / NNNNNNNNGAGACCAAGGCTCTGCTCTTCC [T2 sgRNA 29 V1 ; T2 protospacer + 8N PAM library (pbPOS T2)]
[1]
  activity (1-depletion score): 0.87

## GGAAGAGCAGAGCCUUGGUCUCGUUUGAGAAUGAUGUAAGAAAUUACAUCAUAAGUUCAAAUAACGAUUUAUCGAAGACGCCGUUUAUAACGGCCCACAGUGAGUGGAAAGAAAGCUGUUGCUCAUAGGAGCAGCAGUUUUUU / GGAAGAGCAGAGCCTTGGTCTCNNNNNNNN / NNNNNNNNGAGACCAAGGCTCTGCTCTTCC [T2 sgRNA 31 V1 ; T2 protospacer + 8N PAM library (pbPOS T2)]
[2]
  activity (1-depletion score): 0.95

## GGAAGAGCAGAGCCUUGGUCUCGUUUGAGAACCUUGUAAGAAAUUACAAGGUGAGUGCAAAUAAGGAUUUUUCCGAAAUCACUCCUCAUAAGAGUCCGCAUUGUGCGGUGAAAAGACUCUGCCAAGAGUCUUUUUU / GGAAGAGCAGAGCCTTGGTCTCNNNNNNNN / NNNNNNNNGAGACCAAGGCTCTGCTCTTCC [T2 sgRNA 33 V1 ; T2 protospacer + 8N PAM library (pbPOS T2)]
[3]
  activity (1-depletion score): 0.95

## GGAAGAGCAGAGCCUUGGUCUCGUUGUAGUUCCCUAAUGUUGAAAGACAUUAGGUUACUGCGAUCAGGCAGUAUGCCUCAGAGCUCCGCCCUAACCACGUUUUGUGGUUGGGGCGUCUUUGCAUUUUUU / GGAAGAGCAGAGCCTTGGTCTCNNNNNNNN / NNNNNNNNGAGACCAAGGCTCTGCTCTTCC [T2 sgRNA 30 V1 ; T2 protospacer + 8N PAM library (pbPOS T2)]
[4]
  activity (1-depletion score): 0.95
